# Measurements as given in PMC11134608, “UBR5 forms ligand-dependent complexes on chromatin to regulate nuclear hormone receptor stability” (Molecular cell, 2023).
# Biological target: Full-length human FLAG-UBR5 (human) (UniProt O95071)
# Assay: SEC-MALS; purified UBR5 full length and Δtandem variant
# Conditions: remark: other sources report otherwise
substance,measurement,value
"Full-length human FLAG-UBR5, O95071 1-2799",stoichiometry N,4
